Measurements published in article PMC12406269, “Identification and characterization of nanobodies specific for the human ubiquitin–like ISG15 protein” (The Journal of Biological Chemistry, 2025).

Target: T1, human ISG15 (1-157)-SBP-His (human, UniProt P05161 1-157)
T1 construct: human ISG15, residues 1-157, cloned into pET30b; also called hISG15-SBP-His; human ISG15-SBP; source: E. coli BL21 (DE3), purified (Ni-NTA, SEC); not shown: His, C-terminal, kept
Assay: SEC; VHH and ISG15 mixed at the indicated molar ratios (1:2, 1:1 or 1:1:1) at 20 μM in 500 μl TBS, 20 min at room temperature; Superdex 75 10/300, fractions on SDS-PAGE
Conditions: both partners purified

T1 sequence (P05161 1-157): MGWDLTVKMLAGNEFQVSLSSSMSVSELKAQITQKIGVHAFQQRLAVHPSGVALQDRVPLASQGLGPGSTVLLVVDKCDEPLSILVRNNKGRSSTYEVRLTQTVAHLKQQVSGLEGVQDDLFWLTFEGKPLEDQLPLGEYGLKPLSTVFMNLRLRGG

B1: VHH_(ISG15-A)-HA-His (VHH)
VHH: QLQLVETGGGLVQAGGSLRLSCAASGRTFAGLSVKWFRQPPGAEREWVAHITSTGSSTHYADSVKGRFTISRDYDRNMVYLQMSSLKPEDTAVYYCHASTLWPEKHQDYWGQGIQVTVSS
notes: VHH domain; also called VHH-A; source: E. coli WK6, periplasm (osmotic shock), purified (Ni-NTA, SEC); not shown: LPETGG sortase motif, C-terminal, kept; HA, C-terminal, kept; His6, C-terminal, kept
B1: binds.
